Experimental data from the supplement of paper PMC9112550, “Optimization of the antimicrobial peptide Bac7 by deep mutational scanning” (BMC Biology, 2022).

system: Escherichia coli TOP10; experiment: shrunken log2 fold change of peptide-encoding DNA abundance (4.5 h post-induction vs induction); higher = less antimicrobial activity (less host growth inhibition); conditions: time post-induction: 4.5 h; library: site-saturation at positions 5, 18, 19, 20
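Also: peptides expressed intracellularly from a pBAD plasmid library in pooled LB shake-flask culture, induced with 0.3% L-arabinose, DNA abundance read by NGS, three biological replicates, DESeq2 with apeglm shrinkage.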

Row | Sequence | shrunken log2 fold change
1 | RRIRDRPPRLPRPRPRPVAKPRP | 0.356
2 | RRIRDRPPRLPRPRPRPVANPRP | -0.0229
3 | RRIRDRPPRLPRPRPRPVCLPRP | 0.345
4 | RRIRDRPPRLPRPRPRPVDAPRP | -0.0229
5 | RRIRDRPPRLPRPRPRPVDEPRP | -0.023
6 | RRIRDRPPRLPRPRPRPVDPPRP | 0.0517
7 | RRIRDRPPRLPRPRPRPVDSPRP | -0.0208
8 | RRIRDRPPRLPRPRPRPVDTPRP | -0.0119
9 | RRIRDRPPRLPRPRPRPVEKPRP | 0.0436
10 | RRIRDRPPRLPRPRPRPVELPRP | -0.0194
11 | RRIRDRPPRLPRPRPRPVFSPRP | 0.111
12 | RRIRDRPPRLPRPRPRPVFYPRP | -0.301
13 | RRIRDRPPRLPRPRPRPVGFPRP | 0.859
14 | RRIRDRPPRLPRPRPRPVHAPRP | 0.209
15 | RRIRDRPPRLPRPRPRPVHYPRP | 0.0175
16 | RRIRDRPPRLPRPRPRPVICPRP | 0.0219
17 | RRIRDRPPRLPRPRPRPVINPRP | -0.0846
18 | RRIRDRPPRLPRPRPRPVKRPRP | 0.0129
19 | RRIRDRPPRLPRPRPRPVMAPRP | 0.774
20 | RRIRDRPPRLPRPRPRPVMCPRP | 0.156
21 | RRIRDRPPRLPRPRPRPVMLPRP | -0.0376
22 | RRIRDRPPRLPRPRPRPVPHPRP | 0.012
23 | RRIRDRPPRLPRPRPRPVPMPRP | 0.115
24 | RRIRDRPPRLPRPRPRPVQQPRP | -0.00151
25 | RRIRDRPPRLPRPRPRPVRLPRP | 0.28

Row | Sequence | shrunken log2 fold change
26 | RRIRDRPPRLPRPRPRPVRMPRP | 0.059
27 | RRIRDRPPRLPRPRPRPVRNPRP | 0.282
28 | RRIRDRPPRLPRPRPRPVRRPRP | 0.971
29 | RRIRDRPPRLPRPRPRPVRWPRP | 1.2
30 | RRIRDRPPRLPRPRPRPVSCPRP | 0.342
31 | RRIRDRPPRLPRPRPRPVTNPRP | 0.102
32 | RRIRDRPPRLPRPRPRPVTWPRP | 0.0882
33 | RRIRDRPPRLPRPRPRPVVEPRP | 0.321
34 | RRIRDRPPRLPRPRPRPVVYPRP | -0.349
35 | RRIRDRPPRLPRPRPRPVYGPRP | -0.322
36 | RRIRDRPPRLPRPRPRPVYPPRP | -0.089
37 | RRIRDRPPRLPRPRPRPVYQPRP | -0.263
38 | RRIRDRPPRLPRPRPRPWAYPRP | 0.0388
39 | RRIRDRPPRLPRPRPRPWCKPRP | -0.171
40 | RRIRDRPPRLPRPRPRPWCLPRP | -0.129
41 | RRIRDRPPRLPRPRPRPWDCPRP | -0.103
42 | RRIRDRPPRLPRPRPRPWDRPRP | -0.193
43 | RRIRDRPPRLPRPRPRPWELPRP | 0.18
44 | RRIRDRPPRLPRPRPRPWFCPRP | -0.272
45 | RRIRDRPPRLPRPRPRPWFVPRP | -0.18
46 | RRIRDRPPRLPRPRPRPWHLPRP | -0.231
47 | RRIRDRPPRLPRPRPRPWIAPRP | -0.117
48 | RRIRDRPPRLPRPRPRPWIQPRP | -0.653
49 | RRIRDRPPRLPRPRPRPWIYPRP | -0.304
50 | RRIRDRPPRLPRPRPRPWLAPRP | 0.171

Row | Sequence | shrunken log2 fold change
51 | RRIRDRPPRLPRPRPRPWLKPRP | -0.00783
52 | RRIRDRPPRLPRPRPRPWLQPRP | 0.133
53 | RRIRDRPPRLPRPRPRPWMHPRP | 0.00346
54 | RRIRDRPPRLPRPRPRPWMTPRP | -0.29
55 | RRIRDRPPRLPRPRPRPWMVPRP | 0.333
56 | RRIRDRPPRLPRPRPRPWQLPRP | 0.0822
57 | RRIRDRPPRLPRPRPRPWRFPRP | -0.277
58 | RRIRDRPPRLPRPRPRPWSGPRP | -0.0455
59 | RRIRDRPPRLPRPRPRPWSHPRP | 0.0226
60 | RRIRDRPPRLPRPRPRPWTKPRP | 0.0467
61 | RRIRDRPPRLPRPRPRPWVWPRP | 0.702
62 | RRIRDRPPRLPRPRPRPWWSPRP | -0.0691
63 | RRIRDRPPRLPRPRPRPWWVPRP | -0.335
64 | RRIRDRPPRLPRPRPRPYESPRP | 0.00683
65 | RRIRDRPPRLPRPRPRPYGGPRP | -0.122
66 | RRIRDRPPRLPRPRPRPYGVPRP | 0.00737
67 | RRIRDRPPRLPRPRPRPYHHPRP | -0.0229
68 | RRIRDRPPRLPRPRPRPYHNPRP | -0.461
69 | RRIRDRPPRLPRPRPRPYICPRP | -0.148
70 | RRIRDRPPRLPRPRPRPYISPRP | -0.176
71 | RRIRDRPPRLPRPRPRPYKRPRP | 0.000522
72 | RRIRDRPPRLPRPRPRPYMCPRP | -0.0331
73 | RRIRDRPPRLPRPRPRPYMNPRP | -0.665
74 | RRIRDRPPRLPRPRPRPYNDPRP | -0.307
75 | RRIRDRPPRLPRPRPRPYPHPRP | 1.85
